Measurements from the supplement of paper PMC10201428.
± gives the standard deviation of the averaged measurements.

System: VchCAST RNA-guided transposition machinery (E. coli BL21(DE3) host, lacZ target)
Assay: relative integration efficiency (T-RL orientation) vs wild-type transposon end (log2 (normalized fold change)); transposon end mutated: right end (5 bp flank + 75 bp right end); higher = more efficient transposition
Method: (§1)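 Pooled, barcoded VchCAST (Tn6677) mini-transposon donor libraries; each variable transposon-end sequence sits in a fixed pDonor mini-transposon context (10-bp barcode and cargo not included). Left- or right-end libraries were co-transformed with pEffector (TniQ-Cascade, TnsABC, lacZ crRNA, T7, 0.1 mM IPTG) into E. coli BL21(DE3) and grown 18 h at 37 C. T-LR and T-RL junction amplicons were sequenced; output/input barcode fold change was normalised to the mean of four wild-type barcodes and log2-transformed. Two biological replicates; zero-count/undetected variants carry floor values (-10 / -15), censored here. Barcode uncoupling by PCR recombination adds noise.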

Question: For “ACATTTGTTGAAAAAACCATACGTTGATTTTACGAAACCATACGCTGAAATAATCACACCCATAAATTGATATTGCCTCTGATCATAGTCAGACCAACATTGCTACGACCCGTATTCGCACCGACAC”, which “relative integration efficiency (log2)” value is on record?
Answer: Its value is -6.48 ± 0.15.

Question: For “ACATTTGTTGATACAACCATAAAATGATAATTAATAATTATTTATAATCAGCAACTTAACCACAAAACACCCATAAATTGATAATTAACAAAACACCCATAAATTGATATTGCTGTGAATCGAGTAT”, which “relative integration efficiency (log2)” value is on record?
Answer: The value was -5.86 ± 0.28.

Question: “ACATTTGTAAAAAAAACCATACGTTGATTTTACGAAACCATACGCTGAAATAATCACACCCATAAATTGAAATTGCCTCTGATCATAGTCAGACCAACATTGCTACGACCCGTATTCGCACCGACAC” was tested. Which “relative integration efficiency (log2)” value did it give?
Answer: Its value is -5.81 ± 0.093.

Question: For “ACATTTGTTGATACAACCATAAACGTCGCCGGCACAAACGCCCGGTCGCCGGCGACACAAACGCCCGGTCGCGGTAAGAGGATCATAGTCAGACCAACATTGCTACGACCCGTATTCGCACCGACAC”, which “relative integration efficiency (log2)” value is on record?
Answer: Its value is -6.69 ± 0.61.

Question: How did the “relative integration efficiency (log2)” value turn out when “ACATTGTGGGATACAACCATAAAATGATAATTACACCCATAAATTGATAATTATCACACCCATAAATTGATATTGCCTCTGATCATAGTCAGACCAACATTGCTACGACCCGTATTCGCACCGACAC” was run?
Answer: Its value is -5.61 ± 0.22.

System: VchCAST RNA-guided transposition machinery (E. coli BL21(DE3) host, lacZ target)
Assay: relative integration efficiency (T-LR orientation) vs wild-type transposon end (log2 (normalized fold change)); transposon end mutated: right end (5 bp flank + 75 bp right end); higher = more efficient transposition
Method: as §1

Question: For “ACATTTGTTGATCCAACCATAAAATGATAATTACACCCATAAATGGATAATTATCACACCCAATTTAACTATAACGCTCTGATCATAGTCAGACCAACATTGCTACGACCCGTATTCGCACCGACAC”, which “relative integration efficiency (log2)” value is on record?
Answer: Its value is 1.15 ± 0.043.

Question: With “ACATTTGTTGATACAACCATAAAATGCGCCGGCACAAACGCCCGGTCGCCGGCGACACAAACGCCCGGTCGCGGTAAGAGGATCATAGTCAGACCAACATTGCTACGACCCGTATTCGCACCGACAC” as the sequence, how does the “relative integration efficiency (log2)” value read?
Answer: Its value is -0.733 ± 0.15.

Question: For “CAATTTGTTGATACAACCATAAAATGATAATTACACCCATAAATTGATAATTATCACACCCATAAATTGATATTGCCTCTGATCATAGTCAGACCAACATTGCTACGACCCGTATTCGCACCGACAC”, which “relative integration efficiency (log2)” value is on record?
Answer: The value was 0.164 ± 0.0064.

Question: For “ACATTTGTTGATACAACCATAAAGTGATATTTACACCCATAAATTGATAATTATCACAACCATAAAGTGATATTTACTCTGATCATAGTCAGACCAACATTGCTACGACCCGTATTCGCACCGACAC”, which “relative integration efficiency (log2)” value is on record?
Answer: Its value is -0.0182 ± 0.15.

Question: Which “relative integration efficiency (log2)” value does the source give for “ACATTTGTTGATACAACCATAAAATGATTTTTACACCCATAAATTGATAATTATCACACCCATAAATTGATATTGCCTCTGATCATAGTCAGACCAACATTGCTACGACCCGTATTCGCACCGACAC” here?
Answer: Its value is 0.183 ± 0.26.

Question: How did the “relative integration efficiency (log2)” value turn out when “ACATTTGTTGATACAACCATAAAATGATAATTACACCCATAAATACTAAATTATCACACCCATAAATTGATATTGCCTCTGATCATAGTCAGACCAACATTGCTACGACCCGTATTCGCACCGACAC” was run?
Answer: Its value is -1.26 ± 0.24.

Question: With “ACATTTGTTGATACACCCATAAATTGATATTGCCAACCATATATTGATATCTCTCACACCCATAAATTGATATTGCCTCTGATCATAGTCAGACCAACATTGCTACGACCCGTATTCGCACCGACAC” as the sequence, how does the “relative integration efficiency (log2)” value read?
Answer: Its value is -0.587 ± 0.35.

Question: With “ACATTTGTTGATACAACCATAAAATGGTAATTACACCCCTAAATTGATAATTATCACACCCAATTTAACTATAACGCTCTGATCATAGTCAGACCAACATTGCTACGACCCGTATTCGCACCGACAC” as the sequence, how does the “relative integration efficiency (log2)” value read?
Answer: The value was 0.104 ± 0.26.

Question: Which “relative integration efficiency (log2)” value does the source give for “ACATTTGTTGATACAACCATAAAATGATTATTACACCCATAAATTGATAATGATGACACCGAATTTAACTATAACGCTCTGATCATAGTCAGACCAACATTGCTACGACCCGTATTCGCACCGACAC” here?
Answer: The value was 2.38 ± 0.12.

Question: How did the “relative integration efficiency (log2)” value turn out when “ACATTTGTTGATACAACCATAAAATGATAATTACACCCATAAATTGATAATTATCACACCCATAAATTGATATTGCCTCTGTTGACGGCTAGCTCAGTCCTAGGTATAGTGCTAGCCGCACCGACAC” was run?
Answer: The value was -0.517 ± 0.3.

Question: With “ACATTTGTTGATACAACCATAAAAGGATCATTACACCCATCAATTGATAATTATCACACCCCATTTAACTATAACGCTCTGATCATAGTCAGACCAACATTGCTACGACCCGTATTCGCACCGACAC” as the sequence, how does the “relative integration efficiency (log2)” value read?
Answer: The value was 0.228 ± 0.13.

Question: Which “relative integration efficiency (log2)” value does the source give for “ACATTTGTTGATACAACCATAACCTGATAATTACACCCATAACGTGATAATTATCACACCCATAACGTGATATTGCCTCTGATCATAGTCAGACCAACATTGCTACGACCCGTATTCGCACCGACAC” here?
Answer: The value was -0.339 ± 0.3.

Question: “ACATTTGTTGATACAACCATAAAATGATAATTACAACCATAAAGTGATATTTATCACAACCATAAAGTGATATTTACTCTGATCATAGTCAGACCAACATTGCTACGACCCGTATTCGCACCGACAC” was tested. Which “relative integration efficiency (log2)” value did it give?
Answer: The value was -0.228 ± 0.22.

Question: With “ACATTTGTTGATACAACCATAAAATGATAATTACACCCATAAATTCTTAATTATCACACCCATAAATTGATATTGCCTCTGATCATAGTCAGACCAACATTGCTACGACCCGTATTCGCACCGACAC” as the sequence, how does the “relative integration efficiency (log2)” value read?
Answer: The value was -1.33 ± 0.28.

Question: With “ACATTTGTTGATACAACCATAAAATGATAATTACACCACTAAATTGATAATTATCACACCCATAAATTGATATTGCCTCTGATCATAGTCAGACCAACATTGCTACGACCCGTATTCGCACCGACAC” as the sequence, how does the “relative integration efficiency (log2)” value read?
Answer: Its value is -2.09 ± 0.036.

Question: Which “relative integration efficiency (log2)” value does the source give for “ACATTTGTTGATACAACCATAAAATGATCATTACCCCCATAAATTGATAATTATCACACCCCATTTAACTATAACGCTCTGATCATAGTCAGACCAACATTGCTACGACCCGTATTCGCACCGACAC” here?
Answer: Its value is 2.423 ± 0.013.

Question: How did the “relative integration efficiency (log2)” value turn out when “ACATTTGTTGATACAACCATAAAATGATAATTAATAATTATTTATAATCACCCATAAATTGATAATTATCAACAAACGCCCGGTCGCGGTACTCTGATCATAGTCAGACCAACATTGCTACGACCCG” was run?
Answer: Its value is 1.05 ± 0.26.

Question: Which “relative integration efficiency (log2)” value does the source give for “ACATTTGTTGATACACCCATAAATTGATAATTACAACCATAAGTTGATATTTTTCAGTGGGTATTTAACTATAACGCTCTGATCATAGTCAGACCAACATTGCTACGACCCGTATTCGCACCGACAC” here?
Answer: Its value is 2.821 ± 0.028.

Question: Which “relative integration efficiency (log2)” value does the source give for “ACATTTGTTGATACAACCATAAAATGGTAATTCCACCCCTAAATTGATAATTATCACACCCAATTTAACTATAACGCTCTGATCATAGTCAGACCAACATTGCTACGACCCGTATTCGCACCGACAC” here?
Answer: The value was -0.518 ± 0.25.

Question: For “CAAAATGTAAAAAAAACCATACGTTGATTTTACGAAACCATACGCTGAAATAAAAACAACCATACCTTGAAATTGCTTATAAAGTGTACAACACTTGAGAAAGTTTACTACAGGTATGCACCGACAC”, which “relative integration efficiency (log2)” value is on record?
Answer: Its value is less than -10.

Question: How did the “relative integration efficiency (log2)” value turn out when “ACATTTGTTGATGCAACCATAAAGTGATATTTAATAATTATTTATAATCAGCAACTTAACCACAAAACAACCATATATTGATATCTCACAAAACAACCATAAGTTGATATTTTCTCTGATCATAGTC” was run?
Answer: The value was less than -10.
